Test results: PMC8333356 (Nature Communications, 2021)

Target: receptor binding domain (RBD) of SARS-CoV-2 spike (SARS-CoV-2 Wuhan-Hu-1, UniProt P0DTC2)
Experiment: cryo-EM structure
Settings: both partners purified

B1: Nb105 (VHH)
VHH: VQLVESGGGLVQAGGSLRLSCAVSGRTFSTYGMAWFRQAPGKERDFVATITRSGETTLYADSVKGRFTISRDNAKNTVYLQMNSLKIEDTAVYYCAVRRDSSWGYSRDLFEYDYWGQGTQVTVS
notes: Cloned in pET-21b(+); also called class II Nb; source: E. coli BL21 (DE3), purified (cobalt resin, Superdex 75)
  binding result: binds

B2: Nb36 (VHH)
VHH: VQLVESGGGLVQAGGSLTLTCAASGRTFSSETMDMGWFRQAPGKEREFVAADSWNDGSTYYADSVKGRFTISRDSAKNTLYLQMNSLKPEDTAVYYCAAETYSIYEKDDSWGYWGQGTQVTVS
notes: Cloned in pET-21b(+); also called class III Nb; source: E. coli BL21 (DE3), purified (cobalt resin, Superdex 75)
  binding result: binds
